This assay deals with SidN (Lpg1083), recombinant with 6-His tag (Legionella pneumophila) (UniProt Q5ZWK2). Description: SEC. (SEC sorts molecules by how far they enter the pores of the column.)

The values below come from publication PMC10729856.

One may read the stoichiometry N as the number of molecules, sites or subunits per partner or assembly. With “SidN (Lpg1083), recombinant with 6-His tag (from UniProt Q5ZWK2 1-227) (natural protein)”, the stoichiometry N came out at 2.
